experiment: soluble on expression in E. coli; label from the status in PepcDB or PDB records

Row | Sequence | soluble on expression in E. coli
1 | MASKKREVQLQSVVNSQNLWDEMLLNKGLTVIDVYQAWCGPCKAVQSLFRKLKNELNEDEILHFVVAEADNIVTLQPFRDKCEPVFLFSLNGKIIAKIQGANAPLINRKVITLIDEERKIVAGEMDRPQYVEIPLVDAIDEEYGEVQYESAAEVYNMAIIKPDAVLMRKNIEVREKIAKEGFVIEIQENLILPEEVVREFYTHIADQPDFEEFVVSMTNGLSCVLIVSQEDSEVIQEETLPQTDTEEEPGVLEEPHVRFAPVMIKKKRDSLQEYMDRQYMSDYCDVEDDAVKVFKLIDILFPDFKTMKSTNVQTTLALLHPDICEEEKDDVLNVIHNEGFTILMQRQIVLSEEEARTVCKIHENEEYFDNLIGHMTSNHSYVLALRRENGVEYWKTLIGPKTIEEAYASHPQSLCVQFASGNFPTNQFYGSSSKAAAEKEIAHFFPPQSTLALIKPHVTHKERIHRSSRR | not soluble
2 | MYTNRWEGLDEFVAVAECGQFTAAALRLGVSSSHVSRQIVRLEERLQTRLLYRSTRKVALTEAGQTFLHHCQRLQDGREEALRAVGDLASEPKGLLRMTCAVAYGERFITPLVTRFMELYPQLRVDIELSNDTLDLVHEGMDLAIRLGRLQDSRMVATRLAPRQMYLCASPSYLERYGRPHSLSELSRHNCLIGGSDTWQLQQNGREFSQRVQGNWRCNSGQAVLDAALQGVGLCQLPDYYVQKHLKEGALVSLLEAHQPPNTAVWALYPQQRHLSPKVRKLVDYLKEGLAMQDEYRQ | not soluble
3 | MLREKAMRSWKPIALGVTLALSSQFSWAAVIETTRLVGFGEAKYPENFTHFDYVNPQAPKYGKVTFGELGTYDNFNRFASRGVAAANTAELYDPLMFSPADEIDSYYPLIASKIRYSDDFTWLEIDLNPNARFHDGKPITAQDVEFSFEKFMAEGVPQYRVYYQDVKSVKAIAERTVRIEMKQPNREQLFSLAQSTRVLPKHYWQYKNLAEPLNEPPVGSGAYQIVDFKPGQSVTYKLNPDYWAKDLPVNVGRNNFAQIQYDYYRDDTVMLEAFKAGEFDLREENQAKFWATSYTGRNFDQGLIKKEEIAHQAPASTQGFIFNTQRPVFQDVRVREALNYALDFEWMNKNLFYDQYQRTRSYFQNTEYEAQGLPNAAELAVLTPYKEQLPARVFTETYQPSVTDGSGRIRTQMREAFALLKEAGWELKNKVMTNVKTGEPLSFELLIYSPTTERIAIPLQKNLQLMGIEMKIRTVDTTQYTKRLRDRDFDMISHGFSANPYPSPNLLIVWNSNYMDSSYNSAGANHPVIDALTEQIAKSQQDTEKLRALGSALDRVLQWNFYIIPQWHLSMYRVAMWDKFSRPSVLPKYSLGLDTWWIDQEKAARLPEKRR | not soluble
4 | MSLKWTIYQLHQMPKQSFEFDETVELNELTKLNSDIRRISPVRVKGRADIKSKQVSFDFTISGEMLLPCSRTLVDVPYPFEISTKELFIFHHTDDIEDDDVHIVEDDTIDITPIVKEEILLEIPMQIFCESEQEKGAAPQEGKDWQVISEEDKKNQVDPRLAALEKLLKQDDESEGHHHHHH | soluble
5 | MVMPESHIHNIPMEQCVLVALMTFALSYELIAQDLDEGCFYPERHKQIYNAIVELANENQPYDVVMVEQRLKSKNLLHVLGGEQYLKIMLAEAPSSFHSMEPYITQLKKLKAHRQVEWLGQRISSMAQDTTQPDVFAEAENILGQVDNQEQSDQGMSFEAALDMALTEMIEKAEAKDKQQFTGVKFNLKHLDELLGTVQKGHFCVVGGRPGSGKSTLAQMLALDTASSFGKGVLFISAEMDQSTLANRMISALGLIPYHNIHNAELYNGLMKDYADAKAAYQRLPIWIQPKQKPSLSEVRSYARRAKRRYKELGCIIVDYLQLLRDPSKKDRFQEVSSISRELKSMAKEFECPVIALVQLNREAEKGKRPKASDIKESGQIEQDADQIILVNPLTDPEDSTKPMGITELIVVKNRHGKRGAVRVLDYLETCRFRSVEEQAEP | not soluble
6 | VYNYMVDDTRSQLSIFMDEIAAQLEVDHTGHLSLAAQLSDPRFSRPYSGLYWSASTDSSLERSRSLWDKRIEYKGLDKDAYGARDEKLITLEKALYLPDYDGPIHIIVGIDEEPIKSTLQ | not soluble
7 | MASKSQKKVLKKQNKKKKKDPLAPKRALSAYMFYVKDKRLEIIKEKPELAKDVAQVGKLIGEAWGQLSPAQKAPYEKKAQLDKVRYSKEIEEYRKKNQE | soluble
8 | MAEVTGVRALTGAALDAALEDVARLRIAVFRAWPYLYDGDLDYERDYLQAYRNSDRAIVVGAFDGDRLIGASTGMPLADHADDFAAAFADSGLALDQVFYCAESVLLPDYRGHGVGHRFFDLREGHARALGFAKC | not soluble
9 | MGSDKIHHHHHHMSDALLNAGRQTLMLELQEASRLPERLGDDFVRAANIIIHCEGKVIVSGIGKSGHIGKKIAATLASTGTPAFFVHPAEALHGDLGMIESRDVMLFISYSGGAKELDLIIPRLEDKSVALLAMTGKLHSPLGRAAKAVLDISVEREACPMHLAPTSSTVNTLMMGDALAMAVMQARGFNEEDFARSHPAGALGARLLNNVHHLMRQGDAIPQVMLATSVMDAMLELSRTGLGLVAVCDEQHVVKGVFTDGDLRRWLVGGGALTTPVSEAMTPNGITLQAQSRAIDAKELLMKRKITAAPVVDENGKLTGAINLQDFYQAGII | not soluble
10 | MSLTQNAVEKTPVTMLGLGAMGTALARTWLAAGHRLTVWNRTPARAAALAAEGARVADSAAEAVAANTLVIVCLLDDSSVDEVLAGIDLADTDLVNLTTSTPAQARARAEWANERGARYLDGGIMAVPPMIGVPEAGSYVFCSGSRELFERHQETLGIPAGTTYVGMDAGFAALHDMALLSAMYGMFAGVAHAFALIHKEDIDPTSLAPMLADWLVAMAPAVHQTADHLRSGDYTKGVVSTLAMQVAGTPTFLSTAEQQGVSPELLSPYFELMRRRLAEGSGEEDLTGVINLLVHEGHHHHHH | not soluble
11 | MFWRSIPSLQTLLAAGMGLLMLEIVMAHQPAQAESCTVDPFGSEVCLPDSTPEEPDKPKRSNQSKKSNKPDKSKRMVIVPSCFGPCTQFPPAPPYRQFQEVMEEAALKATPDATPEPRPAEPLRPLWFKSDQLDDVEAETYLERTLDRNDMAQLNAVGIEADTDADGMVITVDGLSYGEVLEPHGLLFTNEVNEPGLNAWVRGFGGGSSNGAAGDRYANFSNGGSQIGFDIPINDETRIGLFGTYAVMNGTDGARGSWDSDGWGGGAYAEYWTSDFYLRGMVSAGGYDGEHRRKIDGETAKGDRSGNSWTGVLNIGAPLQSGDWIIEPQAQLSYTNTSLDKFSEHGANRRDRLRFHEMEVDQLGSELSVKFAIPIRDGERSLLLPSLRVGWAADWGMSGDHQKVSYLESGKSQRWDVNGNDDHAALVELGLDYTTFNFQDTSMGVYARGGGLLWAGNRGTSWQVQGGLNFKF | not soluble
12 | MSSVELPQVMDDNLISRRKKIMQSIEDIRGKKAEIAQALRELGVGKPQENESVKEDMKLLLAAFDSISAQEAQYMDILKTIVGIHEQATLDIAKDFEKKIEDDAQKLKEQKEKQEEDATEEDENAEKTPEEQANSEVIAELQEALLELKQVSEAAVAASELNEKLVERLQLTKRKKSAMMEVRAKKAKDLDDVATKVRAEVMERINKMAALKKTTTKQEKELKELQKQCLQLGLQLGTDENREIDPAAEEALLDDNQRVPVIVETQEKPDLNDEEKEKRREEIRENIKKEMEKKEQVNTLIREKLASMNARRKRLQEIRKMLEKQEHEKEKLDAAISNSAVAVQNDGEGIALTPETPRPSQEDEAEAPAAAETTVVSAPVAASEDIDEEEDGEVTEKSLDDILENARANLSNLTAMRERLEHIKETGGADLNEDDLTLLERLDNVALEEDEKLTPTP | soluble
13 | MAMVSGRRSTLNPDAPLFIPAAVRQVEDFSPEWWQLVTTSTWYPDYWISQQQQGADGFYDNGENENGGGHIDVADLLPESFDFDDMEDFFDTDAAEFDQGFDGRMYYQAPSEFGFGKNGEMVKKSSGNRSPRSIVEPAKYAEKPAKWGNQRVAAAPRNIHQPR | soluble
14 | MEPLSHRGLPRLSWIDTLYSNFSYGTDEYDGEGNEEQKGPPEGSETMPYIDESPTMSPQLSARSQGGGDGVSPTPPEGLAPGVEAGKGLEMRKLVLSGFLASEEIYINQLEALLLPMKPLKATATTSQPVLTIQQIETIFYKIQDIYEIHKEFYDNLCPKVQQWDSQVTMGHLFQKLASQLGVYKAFVDNYKVALETAEKCSQSNNQFQKISEELKVKGPKDSKDSHTSVTMEALLYKPIDRVTRSTLVLHDLLKHTPVDHPDYPLLQDALRISQNFLSSINEDIDPRRTAVTTPKGETRQLVKDGFLVEVSESSRKLRHVFLFTDVLLCAKLKKTSAGKHQQYDCKWYIPLADLVFPSPEESEASPQVHPFPDHELEDMKMKISALKSEIQKEKANKGQSRAIERLKKKMFENEFLLLLNSPTIPFRIHNRNGKSYLFLLSSDYERSEWREAIQKLQKKDLQAFVLSSVELQVLTGSCFKLRTVHNIPVTSNKDDDESPGLYGFLHVIVHSAKGFKQSANLYCTLEVDSFGYFVSKAKTRVFRDTAEPKWDEEFEIELEGSQSLRILCYEKCYDKTKVNKDNNEIVDKIMGKGQIQLDPQTVETKNWHTDVIEMNGIKVEFSMKFTSRDMSLKRTPSKKQTGVFGVKISVVTKRERSKVPYIVRQCVEEVEKRGIEEVGIYRISGVATDIQALKAVFDANNKDILLMLSDMDINAIAGTLKLYFRELPEPLLTDRLYPAFMEGIALSDPAAKENCMMHLLRSLPDPNLITFLFLLEHLKRVAEKEPINKMSLHNLATVFGPTLLRPSEVESKAHLTSAADIWSHDVMAQVQVLLYYLQHPPISFAELKRNTLYFSTDV | soluble
15 | MKKRYRAINDYYRELFGEKIFKLPIDAGFDCPNRDGTVARGGCTFCTVSGSGDAIVAPEAPIREQFYKEIDFMHRKWPEVNKYLVYFQNFTNTHAKLEIIKERYEQAINEPGVIGINIGTRPDCLPDETIYYLAELSERMHVTLELGLQTTYEATSALINRAHSYDLYKKTVKRIRELAPKVEIVSHLINGLPGETHDMMVENVRRCVTDNDIQGIKLHLLHLMTNTRMQRDYHEGRLRLLSQEDYISIICDQLEIIPKHIVIHRITGDAPRHMLIGPMWSLNKW | not soluble
16 | MSVVKSIELVLPEDRIYLAGSSIKGQVILTLNSTLVDPIVKVELVGRGYVEWSEEAGASCDYSRNVICNNKADYVHKTKTFPVEDNWLSAGSHTFDFHFNLPPRLPSTFTSKFGHVFYFVQASCMGREHILAKKRMYLLVQGTSTFHKETPFQNPLFVEAEEKVSYNCCRQGTVCLQIQMERNTFTPGEKVVFTTEINNQTSKCIKTVVFALYAHIQYEGFTPSAERRSRLDSSELLRQEANTPVTRFNTTKVVSTFNLPLLLSVSSSTQDGEIMHTRYELVTTVHLPWSLTSLKAKVPIIITSASVDSAICQLSEDGVLPVNPDHQN | soluble
17 | MGSDKIHHHHHHMIVEKVLIVDPIDGEFTGDVEIEEGKIVKVEKRECIPRGVLMPGFVDPHIHGVVGADTMNCDFSEMEEFLYSQGVTTFLATTVSTSLEKMKEILRKARDYILENPSTSLLGVHLEGPYISKEKKGAHSEKHIRPPSERELSEIDSPAKMLTFAPEIESSELLLRLVKRDIVLSAGHSIATFEEFMKFYKEGVKRITHFPNGLKPLHHREIGITGAGLLLDDVKLELICDGVHLSREMVKLVYKVKKANGIVLVTDSISAAGLKDGTTTLGDLVVKVKDGVPRLEDGTLAGSTLFFSQAVKNFRKFTGCSITELAKVSSYNSCVELGLDDRGRIAEGTRADLVLLDEDLNVVMTIKEGEVVFRSR | soluble
18 | MLRRSSRHADQRKNGAQLRAEEEANKVKLRLTAENEKLKSEVEKLKKDHEELSRVTLKVNTEFTIQESHMARLLRENMSLKEQLNDFSFKLRFRDDMSRVEEQVKKEQGVTDGYRRRVNQLTEFHVKSQEEQRGEPFPWRTCEICACKFEGETMDQTPRVLGCGHTMCMGCVQKIVGQGYIKCPFCRIVTKIGTTPLNNLPKNYIVLNM | not soluble

Source: the DeepSol protein solubility set
